Assay results: the supplement of paper PMC7877785
± gives the uncertainty stated by the source.

Experiment: self-splicing fitness, log relative to wild type (ln ratio); higher = more splicing; Tetrahymena group I intron in knt gene, E. coli kanamycin selection, DiMSum; sequences stand for … in CUCUCU…GGAGGGAAAAGUUAUCAGGCAUGCACCUGGUAGCUAGUCUUUAAACCAAUAGAUUGCAUCGGUUUAAAAGGCAAGACCGUCAAAUUGCGGGAAAGGGGUCAACAGCCGUUCAGUACCAAGUCUCAGGGGAAACUUUGAGAUGGCCUUGCAAAGGGUAUGGUAAUAAGCUGACGGACAUGGUCCUAACCACGCAGCCAAGUCCUAAGUCAACAGAUCUUCUGUUGAUAUGGAUGCAGUUCACAGACUAAAUGUCGGUCGGGGAAGAUGUAUUCUUCUCAUAAGAUAUAGUCGGACCUCUCCUUAAUGGGAGCUAGCGGAUGAAGUGAUGCAACACUGGAGCCGCUGGGAACUAAUUUGUAUGCGAAAGUAUAUUGAUUAGUUUUGGAGUACUCGUGGUCG
In short: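 Fitness was computed with DiMSum as the error-weighted combination of replicate fold changes, kanamycin versus none, each normalised to wild type. The library randomised all eight intron nucleotides of the P1ex region, with the intron placed in the knt kanamycin-resistance gene on pET-22b(+) in E. coli BL21(DE3). Six replicate transformations were grown overnight at 37°C or 30°C on LB agar with or without 25 μg/mL kanamycin, plus 100 μg/mL carbenicillin, 50 μM IPTG and 0.2% rhamnose. Pooled colonies were amplicon-sequenced on an Illumina HiSeq 2500.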

Sequence | self-splicing fitness (ln) (30 °C) | self-splicing fitness (ln) (37 °C)
GCGGAGCAAUAUUACGGCAU | -1.88 ± 0.12 | -0.979 ± 0.13
GCGGAGCAAUAUUACGGCCU | – | 0.0586 ± 0.34
GCGGAGCAAUAUUACGGCGC | -2.22 ± 0.36 | –
GCGGAGCAAUAUUACGGGCU | -2.38 ± 0.36 | –
GCGGAGCAAUAUUACGGUUC | – | -1.69 ± 0.4
GCGGAGCAAUAUUACGUAAU | -1.52 ± 0.15 | -1.73 ± 0.24
GCGGAGCAAUAUUACGUCUG | -3.82 ± 0.42 | -2.44 ± 0.41
GCGGAGCAAUAUUACGUGGC | -2.82 ± 0.18 | -3.01 ± 0.43
GCGGAGCAAUAUUACGUGUA | -3.49 ± 0.37 | -2.58 ± 0.38
GCGGAGCAAUAUUACGUGUU | -2.9 ± 0.31 | -1.47 ± 0.18
GCGGAGCAAUAUUACGUUAC | -1.51 ± 0.22 | -2.36 ± 0.39
GCGGAGCAAUAUUACGUUAG | -2.8 ± 0.23 | -1.99 ± 0.35
GCGGAGCAAUAUUACGUUUU | -3.29 ± 0.21 | -2.02 ± 0.21
GCGUAGCAAUAUUACGACUC | 0.552 ± 0.19 | -0.215 ± 0.26
GCGUAGCAAUAUUACGAGAC | -1.13 ± 0.2 | -2.37 ± 0.39
GCGUAGCAAUAUUACGAGCU | -1.5 ± 0.12 | -1.66 ± 0.23
GCGUAGCAAUAUUACGAUGA | -0.962 ± 0.13 | 0.16 ± 0.14
GCGUAGCAAUAUUACGCAGC | -3.61 ± 0.47 | -2.75 ± 0.38
GCGUAGCAAUAUUACGCCAA | – | -2.7 ± 0.48
GCGUAGCAAUAUUACGCUCA | – | -0.161 ± 0.23
GCGUAGCAAUAUUACGGAUC | -0.345 ± 0.079 | 0.215 ± 0.088
GCGUAGCAAUAUUACGGCGA | -0.0106 ± 0.13 | 0.378 ± 0.16
GCGUAGCAAUAUUACGGGCU | -3.57 ± 0.32 | -1.62 ± 0.2
GCGUAGCAAUAUUACGUAAG | -3.03 ± 0.23 | -2.66 ± 0.25
GCGUAGCAAUAUUACGUGGC | -3.48 ± 0.23 | -2.75 ± 0.31

Sequence | self-splicing fitness (ln) (30 °C) | self-splicing fitness (ln) (37 °C)
GCUAAGCAAUAUUACGAAAA | -1.27 ± 0.15 | -1.6 ± 0.17
GCUAAGCAAUAUUACGAAAC | -1.17 ± 0.14 | -0.452 ± 0.2
GCUAAGCAAUAUUACGAAAG | -0.97 ± 0.14 | -1.09 ± 0.21
GCUAAGCAAUAUUACGAAGA | -0.925 ± 0.087 | -0.138 ± 0.098
GCUAAGCAAUAUUACGAAGG | -1.85 ± 0.11 | -0.743 ± 0.16
GCUAAGCAAUAUUACGACCG | -0.349 ± 0.17 | 0.0102 ± 0.24
GCUAAGCAAUAUUACGAUGU | -1.19 ± 0.072 | -0.496 ± 0.087
GCUAAGCAAUAUUACGCCGA | -2.09 ± 0.33 | -1.28 ± 0.2
GCUAAGCAAUAUUACGGAGA | -3.1 ± 0.21 | -2.49 ± 0.23
GCUAAGCAAUAUUACGGAUA | -2.45 ± 0.24 | -0.375 ± 0.18
GCUAAGCAAUAUUACGGCAC | -1.31 ± 0.19 | -0.55 ± 0.2
GCUAAGCAAUAUUACGGUAC | -1.47 ± 0.1 | -1.65 ± 0.2
GCUAAGCAAUAUUACGGUGG | -3.83 ± 0.23 | -1.82 ± 0.21
GCUAAGCAAUAUUACGUACC | -0.573 ± 0.11 | 0.246 ± 0.17
GCUCAGCAAUAUUACGACGU | 0.0949 ± 0.072 | 0.267 ± 0.079
GCUCAGCAAUAUUACGAGGU | -1.06 ± 0.12 | -2.08 ± 0.23
GCUCAGCAAUAUUACGCACU | 0.181 ± 0.11 | 0.213 ± 0.14
GCUCAGCAAUAUUACGCCAG | -3.54 ± 0.26 | -1.83 ± 0.3
GCUCAGCAAUAUUACGCCCG | – | -0.341 ± 0.44
GCUCAGCAAUAUUACGCGAG | -2.78 ± 0.13 | -2.18 ± 0.17
GCUCAGCAAUAUUACGCGUG | -1.99 ± 0.07 | -1.79 ± 0.089
GCUCAGCAAUAUUACGCUAA | -2.11 ± 0.11 | -0.785 ± 0.11
GCUCAGCAAUAUUACGCUCG | -1.1 ± 0.11 | -1.31 ± 0.18
GCUCAGCAAUAUUACGCUUC | -1.9 ± 0.077 | -0.102 ± 0.081
GCUCAGCAAUAUUACGGCCU | -1.6 ± 0.14 | -0.188 ± 0.16

Sequence | self-splicing fitness (ln) (30 °C) | self-splicing fitness (ln) (37 °C)
GCUCAGCAAUAUUACGGGGC | -3.56 ± 0.2 | -1.98 ± 0.2
GCUCAGCAAUAUUACGGUAA | -1.52 ± 0.13 | -0.551 ± 0.11
GCUCAGCAAUAUUACGUGGU | -1.88 ± 0.13 | -1.31 ± 0.17
GCUCAGCAAUAUUACGUUAC | -1.56 ± 0.12 | -1.65 ± 0.14
GCUCAGCAAUAUUACGUUAU | -1.08 ± 0.12 | -0.166 ± 0.12
GCUCAGCAAUAUUACGUUCG | -1.13 ± 0.065 | -0.838 ± 0.074
GCUCAGCAAUAUUACGUUUG | -2.64 ± 0.13 | -1.8 ± 0.15
GCUGAGCAAUAUUACGAACC | -1.08 ± 0.14 | -0.236 ± 0.18
GCUGAGCAAUAUUACGAAUG | – | -1.4 ± 0.37
GCUGAGCAAUAUUACGACAC | -1.67 ± 0.14 | -1.1 ± 0.18
GCUGAGCAAUAUUACGACGA | – | -0.876 ± 0.39
GCUGAGCAAUAUUACGCGGG | -2.93 ± 0.14 | -1.19 ± 0.14
GCUGAGCAAUAUUACGCUGU | – | -2.51 ± 0.49
GCUGAGCAAUAUUACGGAUU | -2.33 ± 0.1 | -1.26 ± 0.11
GCUGAGCAAUAUUACGGCAC | -0.439 ± 0.24 | -1.28 ± 0.39
GCUGAGCAAUAUUACGGCGG | -1.79 ± 0.22 | –
GCUGAGCAAUAUUACGGCUC | – | -1.71 ± 0.25
GCUGAGCAAUAUUACGGGAG | -2.58 ± 0.35 | -2.15 ± 0.3
GCUGAGCAAUAUUACGGUAC | -2.15 ± 0.22 | -2.77 ± 0.29
GCUGAGCAAUAUUACGGUUU | -1.86 ± 0.075 | -1.25 ± 0.095
GCUGAGCAAUAUUACGUCCA | -1.97 ± 0.27 | -2.32 ± 0.37
GCUGAGCAAUAUUACGUCUG | -2.08 ± 0.14 | -0.981 ± 0.14
GCUGAGCAAUAUUACGUGAU | -1.02 ± 0.1 | -1.13 ± 0.14
GCUGAGCAAUAUUACGUGGU | -3.63 ± 0.32 | -2.22 ± 0.4
GCUGAGCAAUAUUACGUUCG | -2.34 ± 0.12 | -1.17 ± 0.12

Sequence | self-splicing fitness (ln) (30 °C) | self-splicing fitness (ln) (37 °C)
GCUGAGCAAUAUUACGUUUG | -2.85 ± 0.17 | -2.76 ± 0.25
GCUUAGCAAUAUUACGACCA | -1.45 ± 0.2 | -1.29 ± 0.38
GCUUAGCAAUAUUACGACGU | -0.576 ± 0.13 | 0.408 ± 0.16
GCUUAGCAAUAUUACGACUA | -1.34 ± 0.22 | -0.593 ± 0.2
GCUUAGCAAUAUUACGAGGA | -0.769 ± 0.11 | -0.781 ± 0.1
GCUUAGCAAUAUUACGAUAU | -1.67 ± 0.18 | -0.39 ± 0.17
GCUUAGCAAUAUUACGAUUA | -1.01 ± 0.11 | -1.03 ± 0.1
GCUUAGCAAUAUUACGCAGA | -2.62 ± 0.22 | -3.24 ± 0.43
GCUUAGCAAUAUUACGCGAU | -3.45 ± 0.34 | -1.69 ± 0.29
GCUUAGCAAUAUUACGCGCA | -1.37 ± 0.16 | 0.00629 ± 0.17
GCUUAGCAAUAUUACGCGGA | -1.32 ± 0.071 | -0.345 ± 0.071
GCUUAGCAAUAUUACGCUCA | -1.34 ± 0.23 | -0.203 ± 0.22
GCUUAGCAAUAUUACGCUGG | – | -2.13 ± 0.3
GCUUAGCAAUAUUACGGCUC | -0.359 ± 0.098 | 0.0516 ± 0.12
GCUUAGCAAUAUUACGGGAA | -0.679 ± 0.12 | 0.196 ± 0.11
GCUUAGCAAUAUUACGGGCA | -2.24 ± 0.27 | -0.778 ± 0.19
GCUUAGCAAUAUUACGGUGA | -1.46 ± 0.092 | -1.75 ± 0.1
GCUUAGCAAUAUUACGUAAA | -0.47 ± 0.084 | 0.317 ± 0.1
GCUUAGCAAUAUUACGUCCG | -1.68 ± 0.19 | -1.43 ± 0.24
GCUUAGCAAUAUUACGUGAC | -1.54 ± 0.09 | -1.08 ± 0.13
GCUUAGCAAUAUUACGUGUC | -1.23 ± 0.14 | -0.348 ± 0.14
GCUUAGCAAUAUUACGUUGU | -1.5 ± 0.066 | -0.844 ± 0.093
GGAAAGCAAUAUUACGACGG | -4.1 ± 0.39 | -2.12 ± 0.4
GGAAAGCAAUAUUACGACUU | -0.349 ± 0.1 | -0.0565 ± 0.11
